Where two headings read alike, the source gives them in different places.

This is an account of results in PMC2880590.

Assay [1] has as its target activated platelet integrin αIIbβ3 (human (endogenous in platelets)) (UniProt P08514).
Assay [2] concerns the target contortrostatin (CN), native (Agkistrodon contortrix contortrix). As to the kind of experiment: fluorescence polarisation; differing concentrations of purified soluble integrin with a constant amount of FITC-labelled CN or VCN, in solution, steady state; Scatchard analysis and non-linear curve fit. In general terms: In fluorescence polarisation assays a small probe gives low polarisation when free and higher when bound to something large.

Assay [3] deals with vicrostatin (VCN) (Agkistrodon contortrix contortrix (southern copperhead venom gland cDNA library) | not stated). Described as above.
The target of assay [4] is contortrostatin (CN), native (Agkistrodon contortrix contortrix). Put plainly: fluorescence polarisation.
Assay [5] concerns the target vicrostatin (VCN) (Agkistrodon contortrix contortrix (southern copperhead venom gland cDNA library) | not stated). As to the kind of experiment: fluorescence polarisation.
Assay [6] concerns the target activated platelet integrin αIIbβ3 (human (endogenous in platelets)) (UniProt P08514). This is another data set of the same source.

Sequence of UniProt P08514 (P08514 32-1039, chain 1 of 2): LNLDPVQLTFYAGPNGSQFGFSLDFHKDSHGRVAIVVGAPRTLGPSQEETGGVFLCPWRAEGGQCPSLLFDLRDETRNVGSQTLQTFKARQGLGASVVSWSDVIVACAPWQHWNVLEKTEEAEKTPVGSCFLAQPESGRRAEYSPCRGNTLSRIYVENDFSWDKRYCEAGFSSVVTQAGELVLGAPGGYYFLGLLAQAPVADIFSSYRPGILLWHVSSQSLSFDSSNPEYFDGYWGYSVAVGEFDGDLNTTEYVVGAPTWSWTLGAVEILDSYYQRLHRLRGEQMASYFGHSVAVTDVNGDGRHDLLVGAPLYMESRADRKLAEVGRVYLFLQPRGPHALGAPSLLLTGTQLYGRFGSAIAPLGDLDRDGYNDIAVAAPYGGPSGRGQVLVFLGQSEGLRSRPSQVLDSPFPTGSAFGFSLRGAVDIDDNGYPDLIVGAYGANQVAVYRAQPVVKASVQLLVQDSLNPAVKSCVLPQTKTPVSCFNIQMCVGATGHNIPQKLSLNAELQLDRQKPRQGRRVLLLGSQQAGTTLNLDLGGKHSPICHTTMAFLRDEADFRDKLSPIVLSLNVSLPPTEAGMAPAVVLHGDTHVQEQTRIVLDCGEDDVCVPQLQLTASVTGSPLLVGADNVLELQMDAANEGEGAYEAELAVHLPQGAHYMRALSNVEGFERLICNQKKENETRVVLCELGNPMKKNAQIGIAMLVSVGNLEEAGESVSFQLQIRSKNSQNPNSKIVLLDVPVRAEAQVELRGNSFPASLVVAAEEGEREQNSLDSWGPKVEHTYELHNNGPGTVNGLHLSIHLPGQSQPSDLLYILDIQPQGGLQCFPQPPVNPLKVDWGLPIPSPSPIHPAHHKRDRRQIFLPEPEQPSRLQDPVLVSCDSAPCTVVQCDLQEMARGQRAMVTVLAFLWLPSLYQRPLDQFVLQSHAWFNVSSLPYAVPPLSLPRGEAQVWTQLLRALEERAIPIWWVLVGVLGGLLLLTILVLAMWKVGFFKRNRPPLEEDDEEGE
Sequence of UniProt P08514 (P05106 27-788, chain 2 of 2, further chain): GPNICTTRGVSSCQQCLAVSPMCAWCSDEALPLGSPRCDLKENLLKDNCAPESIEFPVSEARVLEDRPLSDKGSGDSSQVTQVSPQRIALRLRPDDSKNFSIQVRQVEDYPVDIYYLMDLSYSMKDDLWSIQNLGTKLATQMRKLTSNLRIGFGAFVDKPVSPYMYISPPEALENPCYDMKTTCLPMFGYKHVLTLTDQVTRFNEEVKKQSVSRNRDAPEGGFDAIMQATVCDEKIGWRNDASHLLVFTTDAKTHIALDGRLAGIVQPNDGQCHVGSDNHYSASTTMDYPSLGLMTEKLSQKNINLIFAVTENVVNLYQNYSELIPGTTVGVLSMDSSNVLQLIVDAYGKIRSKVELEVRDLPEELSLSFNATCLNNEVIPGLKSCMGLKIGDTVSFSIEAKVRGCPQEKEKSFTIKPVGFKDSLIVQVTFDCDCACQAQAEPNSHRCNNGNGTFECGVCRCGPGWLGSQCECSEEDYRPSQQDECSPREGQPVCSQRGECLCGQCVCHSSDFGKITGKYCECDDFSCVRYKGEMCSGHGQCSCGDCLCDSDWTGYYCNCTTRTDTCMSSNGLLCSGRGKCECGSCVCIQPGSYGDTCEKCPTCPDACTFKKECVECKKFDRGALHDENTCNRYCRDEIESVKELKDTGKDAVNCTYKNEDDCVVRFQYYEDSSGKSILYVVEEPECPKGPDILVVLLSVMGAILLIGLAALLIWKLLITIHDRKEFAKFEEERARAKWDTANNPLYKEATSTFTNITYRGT

“contortrostatin (CN), native (natural protein)” returned an IC50 of inhibition of ADP-induced platelet aggregation in human platelet-rich plasma (blocks fibrinogen binding to αIIbβ3) in assay [1] of 60 nM.

Regarding “purified soluble integrin αvβ3 (from UniProt P06756 31-1048; P05106 27-718) (receptor)”, the values for the Kd in assay [2] and in assay [3] were 6.6 nM and 7.4 nM, respectively.

For “purified soluble integrin αvβ5 (from UniProt P06756 31-1048; P18084 24-719) (receptor)”, the dissociation constant Kd in assay [4] was determined as 19.5 nM; in assay [5] it was 41.2 nM.

Turning to “soluble recombinant integrin α5β1 (from UniProt P08648 42-1049; P05556 21-728) (receptor)”, the values for the Kd in assay [4] and in assay [5] were 191 nM and 15.2 nM, respectively.

As for vicrostatin (VCN) (ligand), the IC50 of inhibition of ADP-induced platelet aggregation in human platelet-rich plasma (blocks fibrinogen binding to αIIbβ3) in assay [6] was determined as 60 nM.

In general, Kd refers to a measure of binding affinity in units of concentration. The low end stands for a tighter complex, the high end for a looser complex.
